Source: PMC3858281, “Structural Characterisation of the Nuclear Import Receptor Importin Alpha in Complex with the Bipartite NLS of Prp20” (PLoS ONE, 2013)

Biological target: Mouse IMPαΔIBB (residues 70–529) (mouse, UniProt P52293 70-529)
Assay: crystal structure; complex of IMPαΔIBB and Prp20 NLS (GST tag removed by thrombin) in 20 mM Tris pH 7.8, 125 mM NaCl, 20 mg/mL; crystals in 500 mM sodium citrate pH 6–8, 10 mM DTT; 2.1 Å
Conditions: both partners purified

B1: Prp20 (S. cerevisiae RanGEF) NLS (residues 3–23) (peptide)
chain: KRTVATNGDASGAHRAKKMSK
notes: Prp20 (RanGEF), S. cerevisiae, bipartite NLS, residues 3-23; Only KR4 and RAKKMSK23 are in the final model; also called Prp20 NLS; Prp20NLS
B1: binds.
